The results in this text go back to US20250011456A1 (VILLANELLE LIFE SCIENCE, published 2025).

The term Kd denotes a measure of binding affinity in units of concentration. As a reminder, the koff is a measure of how fast the partners let go of each other. In general, kon refers to the second-order rate constant of association.

In test [1] the target is T1, Recombinant Human CD14/His Protein (B294801) (human, UniProt P08571 20-352, limits assumed).
T1 construct: Bought His-tagged recombinant human CD14; also called recombinant human CD14 antigen; CD14 antigen; not shown: histidine tag
T1 sequence (looked up): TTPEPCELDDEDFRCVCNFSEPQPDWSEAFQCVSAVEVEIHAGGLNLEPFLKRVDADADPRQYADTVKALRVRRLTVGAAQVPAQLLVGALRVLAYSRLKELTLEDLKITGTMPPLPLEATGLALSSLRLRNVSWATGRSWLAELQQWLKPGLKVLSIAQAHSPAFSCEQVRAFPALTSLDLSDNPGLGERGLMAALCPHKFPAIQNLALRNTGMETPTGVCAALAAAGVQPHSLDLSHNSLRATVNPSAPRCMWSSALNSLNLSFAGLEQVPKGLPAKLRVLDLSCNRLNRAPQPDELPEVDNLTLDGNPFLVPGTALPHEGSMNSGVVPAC
Kind of test: SPR (Biacore 8K), antibody captured (1 ug/mL) on Protein A chip, CD14-His analyte 0.1953125-25 nM, 1:1 binding. The protocol: The Biacore 8K platform was used to test the kinetic and affinity properties of the antibody, operating according to system instructions and indications.
Results of Affinity Detection. The affinity of the six antibodies was measured at saturation concentration. […] Change factor is described above.

The target in test [2] is T1, Recombinant Human CD14/His Protein …. Kind of test: SPR (Biacore 8K), antibody captured on Protein A chip, CD14-His analyte 0.78125-25 nM, 1:1 binding. On the procedure: The Biacore 8K platform was used to test the kinetic and affinity properties of the antibody. The operation was carried out according to the system instructions and indications.
15 humanized antibodies (numbered D6DD3D002-D6DD3D0016) and 1 mouse antibody (number D6DD3D001) were tested. […] The capture concentration was 1 μg/mL. In Table 8-3, the change factor is the ratio of the equilibrium dissociation constant KD of the humanized to mouse antibody, and reflects the change in affinity after humanization.

Changes are numbered by the printed parent chain.

B1: Antibody No. D6DD3D001 (HU1127-mVH/mVL) (antibody, human IgG1, kappa, V domains shown)
VH: DVQLQQSGPGLVKPSQSLSLTCTVTGYSITSDSAWNWIRQFPGNRLEWMGYISYSGSTSYNPSLKSRISITRDTSKNQFFLQLNSVTTEDTATYYCVRGLRFAYWGQGTLVTVSS
VL: DIVLTQSPASLAVSLGQRATISCRASESVDSYVNSFLHWYQQKPGQPPKLLIYRASNLQSGIPARFSGSGSRTDFTLTINPVEADDVATYYCQQSNEDPYTFGGGTKLEIKR
notes: Mouse variable domains of Atibuclimab on human IgG1 constant regions (hFc, 146 kDa); also called Original IgG1 antibody; mouse antibody
Consider B1, for which, in test [1], the “Change Factor (KD relative to mouse antibody D6DD3D001)” value is 1, the Kd stood at 0.864 nM, the koff was 0.00108 s⁻¹ and the kon amounted to 1.25e+06 M⁻¹ s⁻¹. Moreover, in test [2], the “Change Factor (KD relative to mouse antibody D6DD3D001)” value worked out at 1, the Kd is 0.485 nM, the off-rate constant (koff) was determined as 0.000858 s⁻¹ and the kon was found to be 1.77e+06 M⁻¹ s⁻¹.

B2: Antibody No. MPDDAD001 (HU1127-hVH3/hVL3-1) (antibody, IgG1, V domains shown)
VH: QLQLQESGPGLVKPSETLSLTCTVSGGSISSDSAWNWIRQPPGKGLEWIGYISYSGSTSYNPSLKSRVTISRDTSKNQFSLKLSSVTAADTAVYYCVRGLRFAYWGQGTLVTVSS
VL: DIQLTQSPSSLSASVGDRVTITCRASESVDSYVDSFLHWYQQKPGKAPKLLIYRASNLQSGVPSRFSGSGSRTDFTLTISSLQPEDVATYYCQQSNEDPYTFGQGTKLEIK
notes: D6DD3D014 with the light chain PTM site NS (VL amino acids 34, 35) changed to DS; Tested as a recombinant antibody with hFc tag, 144 kDa
On to B2, for which, in test [1], the “Change Factor (KD relative to mouse antibody D6DD3D001)” value is 8.66, the Kd was 7.48 nM, the koff turned out to be 0.00633 s⁻¹ and the kon is 847000 M⁻¹ s⁻¹.

B3: Antibody No. MPDDAD004 (HU1127-hVH3/hVL3-4) (antibody, V domains shown)
VH: B2 VH
VL: B2 VL with D34N, S35A
notes: D6DD3D014 with the light chain PTM site NS (VL amino acids 34, 35) changed to NA; Tested as a recombinant antibody with hFc tag, 144 kDa
As for B3, in test [1], the “Change Factor (KD relative to mouse antibody D6DD3D001)” value came out at 6.86, the Kd is 5.93 nM, the koff was determined as 0.0046 s⁻¹ and the kon amounted to 775000 M⁻¹ s⁻¹.

B4: Antibody No. MPDDAD005 (HU1127-hVH3/hVL3-5) (antibody, V domains shown)
VH: B2 VH
VL: B2 VL with D34Q
notes: D6DD3D014 with the light chain PTM site NS (VL amino acids 34, 35) changed to QS; Tested as a recombinant antibody with hFc tag, 144 kDa
On to B4, for which, in test [1], the “Change Factor (KD relative to mouse antibody D6DD3D001)” value came to 5.65, the Kd stood at 4.88 nM, the koff turned out to be 0.00544 s⁻¹ and the kon is 1.11e+06 M⁻¹ s⁻¹.

B5: Antibody No. MPDDAD002 (HU1127-hVH3/hVL3-2) (antibody, V domains shown)
VH: B2 VH
VL: B2 VL with D34S
notes: D6DD3D014 with the light chain PTM site NS (VL amino acids 34, 35) changed to SS; Tested as a recombinant antibody with hFc tag, 144 kDa
As for B5, in test [1], the “Change Factor (KD relative to mouse antibody D6DD3D001)” value amounted to 3.24, the Kd amounted to 2.8 nM, the koff was 0.00362 s⁻¹ and the kon was 1.29e+06 M⁻¹ s⁻¹.

B6: Antibody No. MPDDAD003 (HU1127-hVH3/hVL3-3) (antibody, V domains shown)
VH: B2 VH
VL: B2 VL with D34T
notes: D6DD3D014 with the light chain PTM site NS (VL amino acids 34, 35) changed to TS; Tested as a recombinant antibody with hFc tag, 144 kDa
Take B6: in test [1], the “Change Factor (KD relative to mouse antibody D6DD3D001)” value was 2.34, the Kd stood at 2.02 nM, the koff was 0.0026 s⁻¹ and the kon was 1.29e+06 M⁻¹ s⁻¹.
